Test results as given in patent publication US20220281949A1 (UNIVERSITY HEALTH NETWORK, published 2022).

Biological target: T1, soluble CD4 (sCD4): human CD4 extracellular domain fused with a 6×His tag via a GS linker (human, UniProt P01730 26-396)
T1 construct: Produced in HEK293T supernatant; for staining the monomer was dimerized with a PE-labeled anti-6×His mAb (AD1.1.10); also called dimerized sCD4
Assay: flow cytometry: K562 cells expressing the class II molecule stained with sCD4 dimerized by PE anti-His mAb

B1: wild-type DR1 (DRA1*01:01/DRB1*01:01) on K562 cells (peptide-MHC, human)
MHC II alpha: not shown
MHC II beta: not shown
notes: whole, on cells; Stably transduced in class II-deficient K562 cells
  binding result: no binding
